From publication PMC6511404 come the findings set out here.

Assay [1] addresses E. coli enolase, detagged (His tag removed by thrombin) (E. coli). As to the kind of experiment: crystal structure.
Assay [2] has the same target. In words: crystal structure. The source holds these as a separate data set.

Where two headings read alike, the source gives them in different places.

E. coli enolase, detagged (His tag removed by thrombin) (enzyme), sequence (A1AEW7 2-432): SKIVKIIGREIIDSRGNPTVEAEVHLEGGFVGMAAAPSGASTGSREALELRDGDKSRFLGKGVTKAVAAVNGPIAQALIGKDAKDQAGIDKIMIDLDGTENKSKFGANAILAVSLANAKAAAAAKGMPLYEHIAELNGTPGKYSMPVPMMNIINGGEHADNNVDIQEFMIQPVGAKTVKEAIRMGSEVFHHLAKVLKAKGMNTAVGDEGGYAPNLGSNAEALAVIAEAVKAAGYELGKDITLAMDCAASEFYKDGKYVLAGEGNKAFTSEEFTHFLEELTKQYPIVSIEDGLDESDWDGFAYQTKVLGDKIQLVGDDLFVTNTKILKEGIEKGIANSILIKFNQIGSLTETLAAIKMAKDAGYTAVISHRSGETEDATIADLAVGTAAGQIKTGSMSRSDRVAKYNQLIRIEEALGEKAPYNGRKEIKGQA

As to “E. coli enolase, detagged (His tag removed by thrombin) (enzyme)”, the stoichiometry N (commonly a count of units in the complex or per binding partner) in assay [1] is 2; in assay [2], 6.
